For the data set, the target named is T1, SarA (staphylococcal accessory regulator A), strain DB (Staphylococcus aureus) (UniProt Q2G2U9).
T1 sequence: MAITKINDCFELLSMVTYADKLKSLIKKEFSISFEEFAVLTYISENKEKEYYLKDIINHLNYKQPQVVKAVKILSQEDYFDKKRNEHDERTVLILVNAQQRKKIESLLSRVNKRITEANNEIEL
Briefly: EMSA. The conditions noted are these: same buffer; 1 dimer per DNA; dG dissociation 12.1 kcal/mol. (Mobility shift assays separate free from complexed probe on a gel.)

Take “AC oligo (45 bp, footprint region of Chien and Cheung)”: the Kd (as a rule, the equilibrium constant for the complex coming apart) was determined as 1 nM.
